Data on 15 sequences can be found in a protein production outcome set (Wang et al. 2014).

The series in a line: label from the status in PepcDB records.

Turning to “MIMIDLSLIWIVIIAVGVFIYIVLDGFDLGIGILFPFIKDQHERDVMMNTVAPVWDGNETWMVLGGAGLFAAFPMVYSAVLSALYLPIILMVIALIFRGVAFEFRFKANRTKHLWDAAFIGGSIISSFLQGVILGAYIQGIHIVDGRYAGGGLDWLTPFSLFTGVGVVVVYAALGCGWLIMKTDHRLQLNMYSLMPKLMYALLIIFVCVSIYTPLSQPQIAARWFTQPQLTYFSPVPILVVIFTFLTVRACSKRQESMPFLYTLALVFLAYTGFLISIFPYIIPPSVTIWDAAAPANSQLFALIGALILIPIIIMYTIMAYWVFRDKVRVGDEGYH”, the protein production result is on record as “failed”.

In the case of “MIMLNKQGITISLCMIVRDEEETIARCLETVEKIVDEIIVVDTGSVDRTKEIVEKYTSNIYDFQWIDDFAAARNFSFSKATQEYILWLDADDVLLEDAQEALKLLKRELDPKIDAVSMPYHLAMDSNGKPLYCTKRNRLVKREKQFQWFGKVHEYLAISGEVFSSNVAITHKKEKKVTNRNLKIFQNTVAAGEELSPRDLFYYANESTDNQKYDDAVLLYETFLNQDEGWYEEKIYACGKLGDCYAKLGMWEKAIESCVKSFRYDVPRGENCTRIGYIYMEQEKYNEAIFWFKLATEVPMATESPFHSPASYTWLPYLQMCICYSRLGEQDKAYYYNELAASYVPNNAAIEYNRKYFRGVFDKPYKVLEHHHHHH”, the protein production result was “failed”. Then “MIMSKESIIFVGLFTVILSAVILMLSYTSSGQELNQYVKIEVQQGDTLWSIADQVADTKKINKNDFIEWVADKNQLQTSDIQPGDELVIPLKKKHQDAYELATVR”, with “failed”; and “MIPELPHAQLDWDDQGRPRSRVFDDVYFSSESGLDETRHVFIEQNRLGQRFAALADGERFVIGETGFGTGLNFLCAWQLFQQQAPTGARLHFVSVEKYPLSPADLQRALALWPELASFSAPLLEQYVAVHGGFQRIVLEGGRVILTLLIGDALEQLPQLDAQVDAWFLDGFAPAKNPDMWTAELFAELARLAAPGSTISTFTSTGWVRRLLNSAGFKMKRTPGIGHKWEVLRGEFLGWPEDAPAPARARPWFARPALGEKTALVIGGGLAGCASAASLAARGWQVQLLERHAELAREASGNPQGVLYLKLSAHGTALSQMILSGFGYTRRQLEHLQRGQDWDGCGVLQLAFNAKEAERQAQLAAAFPADLLHLLDQPQAQARAGIGLEHGGLFYPEGGWVHPPALCQWQASHPRIQVLAHREVLELRRVDEQWQAWDGDRMLASAAVVILAGAAEIKRFPASADLPLKRIRGQITRLPQTAQSQSLATVVCAEGYVAPARLGEHTLGASFDFKSQDLTPTSAEHAGNLEMLREISSDLLQRLGAEQLPLDSLQGRAAFRCTSPDYLPIVGPLADPLAFAETYAALGKDARQVPDLPCPWLDGLYINSGHGSRGLITAPLSGELLAAWLENEPLPLPRSVAEACHPNRFALRRLIRGKA”, with “failed”; and “MIPGMNAKQMKKMERQMKKMGMDMKDLKGVKEVIIRLEDKELVIPNAEVSLMNVMGQETYQVTGKAHEVAIDEELVIPDEDIEMVANQANVSEDEAKAALEDTNGDLAEAILKLNQ”, with “failed”. Then “MIPLSESFESGIPAIWKTIDADGDGYNWMHLTNFTGQSGLCVSSASYIGGVGALTPDNYLITPELKLPTDALVEIIYWVCTQDLTAPSEHYAVYSSSTGNNAADFVNLLYEETLTAKRIQSPELIRGNRTQGVWYQRKVVLPNDTKYVAFRHFNSTDNFWLNLDEVSI”, with “failed”; and “MIPVFNITSNRGRLLQQISVGDIWGVGRQWANKLISRGIHTAYDLAMTNPHLLKKCFNAVLMRTAMELQGIACGGLEVLEHHHHHH”, with “failed”; and “MIPYLYVLAAAFLWGTSFVAGKIAFGVADAPLIVLARFAMAGLFWLPVFCRSVRSVPSSRWGALLLLSFLMIPATFLLQFMGLQYTSATSATLMIGFEPLMVMLVGWLIWREQMTALHLLLGTVALAGVLLVMGWPSGANFLGCLLVLLSTVVVAIWVRWSKIWMQSLSVNAFTALTTVLGTIMLIPFALFLTNDWQVNLSTQGASALLYLGVGCSLGAGWLWNMGMRSIPANAGGMFLALEPIFGVIFAVALLYEPLGATTLAGIGLVVIPVLVISVLPVLQARRLPEAC”, with “failed”.

As for “MIQAQTAAPPHAKVTAILLFTTLMWGGSFLFNKIGMREVPPVHFFFFRFALAALLMGGVCLPRLARLNRHIAVRGAVVGLALAAVNLTFVLGVSGTTISRAGYLNNLFVLFIPLLTFALWRERVDRVTFGGIALAVVGLWALASGGAEGFNQGDLLSTVCALFIAIHIIAVSRVLRDEDVYLVTFVQFVTVAAVGLVLCLVLPWPEFTIGRAGAWSLAYCALFPTVICFTLQNAYQRFTTPTRAGLIYTLDPVWSMLFGVFILGERLTPRELAGCVLILMAVAGPLLARLYLEQRHRRLYRLDGAEGT”, the protein production result is on record as “failed”. With “MIQEKHLTFTINLLVSLFFLTILIIPKGYNYAPIILSAIGLIYFIPLKKKLSFSSEDKKLIFSFLFYFFTFLLSIIINKDGIREIDNPSRLLLFIPLLLLFKNFPIKRKTILYAIPSSALITGCVALFQKFALGYEKPFPETMHIQMGNIAISLATFSIVITLHFFIKKQYKSTLFGFVAIILAIMTSALSGARGGWIGLPVVVGIILFLYKEFINKKLIITLIAIITIGLTALITSPKFGIEKRYNAAKSDIVSYLEKNNRNTSLGARFDMWENALIAIKEAPIFGHGSDGYDEFRHKQVKSKQMAKTTLNFGSLHNQYLESWVKRGLVGFIALILIILTPIFYFIKNLNTHNLETKCICILGIIHIVSHIFYFTSQSFLAHNSGNIFYFSAMLCFIV” the entry was “failed”; with “MIQITVVQIDNYGPWTVTPNPRRESDLQALQSRLYCDMNLQFGAHKGLAFYTRFDNIIAITNGIDLETHKRIQNSVKNRYPFTVSMAVASAETAYEAQKLATKTIQEYGSAQDDVRKEVLDVANEFVSNGYVQLAHVDINDITGKLTDLETAYDTYLSVQKTKLKLMEELKKYDSLGFFIGGDNFMCPCNGMNEKDFLCMFEDIKDSCGIELKAGIGIGKTAEDASNLADIGLEVIREGKTDSQVYTLKQEIDEQKNVPYNYMCPI”, “failed”; with “MIQRTKAKVMGAPTPMAGLALGIASLGWSWENFAELHGYGQWISAGIASVLLVILATKFLLHNHLLREDLAHPVVGSVVPTFAMGTMVVSNSLGHFYPLAGDVLWLIAVVLHIVFLVSFVYHRAKDFELHHMVPSWFVPPVGIIVADVSFSGNPMLAPVAQGALTFGMVAYAIMLPMMIYRFMFTHEIPDAAKPTMAIMAAPASLSLAGYLTVTATPSPVIIAMLFGIAVLMTAIIYLAFFKLLRLPFSPGYAAFTFPMVIGATALFKMANWMELQGLAAHYVQQVRGLAGLELIVATFVVSYVALQYINNLLIQPRLMHAHHA”, “not failed”. Then “MIQSQINRNIRLDLADAILLSKAKKDLSFAEIADGTGLAEAFVTAALLGQQALPADAARLVGAKLDLDEDSILLLQMIPLRGCIDDRIPTDPTMYRFYEMLQVYGTTLKALVHEKFGDGIISAINFKLDVKKVADPEGGERAVITLDGKYLPTKPF”, with “not failed”; and “MIRALSMHLLDRLTIRLFHDERQKQFSGDHARSLGWSSTESQFLRFKTMTQAINFEQKTVLDLGCGYGDFKTFLDMSCCIKSYTGVDQQSSFIKQAKSLFKHHTNCEFIKADFSATTLPKADIVVASGSLNYRARNKTYHAKVIKEMYERAEEAVIFNLLNSEHFTSSSLLEAHDPQQVLKYCLSFCPDSELITDYANEDFTIVMRHSNSSKLEHHHHHH”, with “not failed”. Take “MIREKALEFHKNNFPGNGKIEVIPKVSLESREELTLAYTPGVAEPCKEIARDPGKVYEYTSKGNLVAVVSDGSRILGLGNIGPLAGLPVMEGKALLFKRFGGVDAFPIMIKEQEPNKFIDIVKAIAPTFGGINLEDIASPKCFYILERLREELDIPVFHDDQQGTAAVVLAGLLNALKVVGKKISEITLALFGAGAAGFATLRILTEAGVKPENVRVVELVNGKPRILTSDLDLEKLFPYRGWLLKKTNGENIEGGPQEALKDADVLISFTRPGPGVIKPQWIEKMNEDAIVFPLANPVPEILPEEAKKAGARIVATGRSDYPNQINNLLGFPGIFRGALDVRARTITDSMIIAAAKAIASIVEEPSEENIIPSPLNPIVYAREARAVAEEAMKEGVARTKVKGEWVEEHTIRLIEFYENVIAPINKKRREYSKAITRA”: the protein production result is “not failed”.
